Measurements from patent publication US7422862B2, “Methods for identifying modulators of apoptosis” (The Burnham Institute, priority 2001, dated 2008).
No end group written: not given here.

What was measured:
Bax [1] = target: T1, Bax (Homo sapiens, UniProt Q07812); test: Co-immunoprecipitation of GFP-Humanin fusion polypeptides with Bax in transfected cells; format: binding; design: expressed in transfected cells; host or cells: HEK293T; key to Bax binding: +: ability to bind Bax was determined by co-immunoprecipitation assay; −: lacked Bax-binding activity; conditions: for Bax binding: GFP-fusion polypeptides, co-immunoprecipitation
T1 sequence (Q07812 whole entry, species assumed, the tested form may be a part): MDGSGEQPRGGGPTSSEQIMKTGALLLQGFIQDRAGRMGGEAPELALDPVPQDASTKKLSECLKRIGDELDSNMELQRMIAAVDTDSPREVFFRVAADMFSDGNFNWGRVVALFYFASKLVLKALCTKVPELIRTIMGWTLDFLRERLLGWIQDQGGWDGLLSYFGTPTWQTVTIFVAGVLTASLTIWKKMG
Excerpt: Humanin (HN) cDNA was sub-cloned into a Green Fluorescence Protein (GFP) expression vector GFP-Cl at the Xhol/Hind III sites, producing a GFP-HN fusion polypeptide. GFP and GFP-HN were transfected into 293T cells with pcDNA3-HA-Bax. Cell lysates from these cells were immunoprecipitated with anti-GFP antibody and subsequently blotted with anti-HA antibody. The lysates were also blotted with ani-GFP antibody to confirm polypeptide expression. […] The data shown were obtained using the cytosolic form of Humanin; however, both cytosolic and mitochondrial forms of Humanin were tested and the results were the same.
Co-immunoprecipitation assays were performed using Humanin polypeptides expressed as fusion polypeptides with the Green Fluorescent Protein (GFP) in human cells. Wild-type Humanin fused to GFP is referred to as GFP-HN and a mutant form of Humanin, where the cysteine at position 8 is replaced with proline, fused to GFP is referred to as GFP-C8P. […] Immunoblot analysis of lysates of the transfected cells confirmed production of all proteins. In addition, GFP-HN also coimmunoprecipitated endogenous Bax from cell lines, which contain relatively high levels of the Bax protein.
Immunoblotting and immunoprecipitations were performed as follows. Immunoblotting was performed as described previously (Fields and Song, Nature 340:245-246 (1989)). For co-immunoprecipitations, cells were cultured in 50 uM […] Valine Alanine Asparate fluoromethyl-ketone (zVAD-fmk) to prevent apoptosis. Cells were suspended in lysis buffer (50 mM Tris-HCl, pH7.4; 150 mM NaCl; 20 mM EDTA; 50 mM NaF; 0.5% NP-40; 0.1 mM Na3VO4; 20 ug/ml Leupeptin; 20 ug/ml Aprotinin; 1 mM DTT; and 1 mM PMSF). Lysates (200 ul diluted in 1 ml final volume of lysis buffer) were cleared by incubation with 15 ul of protein G-Sepharose 4B (Zymed) and then incubated with 15 ul of polyclonal antibody and 15 ul of protein G at 4° C. overnight. Beads were then washed 4 times with 1.5 mls lysis buffer before boiling in Laemmli sample buffer and performing SDS-PAGE/immunoblotting.
(§1) In order to explore whether a correlation exists between Humanin binding to Bax and Humanin-mediated suppression of apoptosis, Bax was co-expressed with various GFP-fusion polypeptides encoding wild-type, full-length Humanin or various truncation and site-specific mutants of Humanin (Table 1). Expression of all GFP-fusion polypeptides was confirmed by immunoblotting, and ability to bind Bax was determined by co-immunoprecipitation assay. Each Humanin mutant was scored for ability to suppress apoptosis induced by Bax over-expression by >50% using a 3:1 ratio of HN:Bax plasmid DNA. […] Based on these studies, an active region of the 24 amino-acid Humanin peptide, mapped to residues 7-17.

Bax [2] = target: T1, Bax; test: Suppression of apoptosis induced by Bax over-expression (Humanin mutants); format: cell-based; design: expressed in transfected cells; host or cells: HEK293T; conditions: GFP-fusion polypeptides, 3:1 ratio of HN:Bax plasmid DNA
Protocol: (§2) Apoptosis assays were performed as follows. Both floating and adherent cells (after trypsinization) were collected 48 hr after transfection, fixed, and stained using 4′,6-diamidine-2′-phenylindole dihydrochloride (DAPI) for assessing apoptosis based on nuclear fragmentation and chromatin condensation (Fields and Song, supra (1989)).
as §1
Cell culture and transfections were performed as follows. CSM14.1, HCT116, Cos-7, and SF268 cells were cultured in DMEM high glucose media (Irvine Scientific, Santa Ana, Calif.) containing 10% fetal bovine serum (FBS). PC-3 cells were cultured with RPMI 1640 media containing 10% FBS. Transfection of cells was performed using SuperFect (Qiagen, Chatsworth, Calif.) or LipofectaminePLUS reagent ([…]).

Bax [3] = target: T1, Bax; test: Bax-induced apoptosis in transfected neuronal cells (DAPI staining); format: cell-based; design: expressed in transfected cells; conditions: CSM14.1 cells, 48 h, DAPI
Protocol: (A) HEK293T cells were transfected with pcDNA3-HA-Bax together with plasmids encoding GFP, GFP-HN(N), or GFP-HN(M). Cell lysates were immunoprecipitated with polyclonal anti-GFP antibody. Immunoprecipitates (IP) or cell lysates were analyzed by immunoblotting using anti-HA or anti-GFP antibodies, respectively. (B) CSM14.1 neuronal cells were co-transfected with pcDNA3-HA-Bax together with plasmids encoding GFP, GFP-HN(N), or GFP-HN(M). Percent apoptosis was determined 48 h later by DAPI staining (mean±SD; n=3).
Rat neuronal cell line CSM14.1 cells were transfected with various plasmids using the Lipofectamine reagent (Invitrogen). For transfection, 10×10^5 cells were plated per well using 6 well plates. Each well received 1 μg DNA plus […] of Lipofectamine. After 24 hours of transfection, the percentage of cell death was determined using 4′-6-diamidino-2-phenylindole (DAPI) staining. […] The data shown were obtained using the cytosolic form of Humanin; however, both cytosolic and mitochondrial forms of Humanin were tested and the results were the same.
as §2
Since Humanin co-immunoprecipitates with Bax but not Bak, the effects of Humanin over-expression on apoptosis induced by these members of the Bcl-2 family was compared. […] Similar results were obtained regardless of whether Humanin was fused to the N- or C-terminus of GFP, with both of these GFP fusion polypeptides localizing to the cytosol of cells.

| Bax binding (Bax [1]) | co-immunoprecipitation with tagged Bax (Bax [1]; 293T/HEK293T cells, anti-GFP immunoprecipitation) | suppression of Bax-induced apoptosis, nuclear vs mitochondria-encoded form (Bax [3]) | Substance | Bax suppression (Bax [2]) |
| --- | --- | --- | --- | --- |
| − |  |  | 1-12: GFP-fusion of Humanin truncation, residues 1-12 (MAPRGFSCLLLL; also: fused to GFP; UniProt Q8IVG9 1-12, looked up, fragment) | − (failed to protect against Bax-induced apoptosis) |
| − |  |  | 1-15: GFP-fusion of Humanin truncation, residues 1-15 (MAPRGFSCLLLLTSE; also: fused to GFP; UniProt Q8IVG9 1-15, looked up, fragment) | − (failed to protect against Bax-induced apoptosis) |
| + |  |  | 1-17: GFP-fusion of Humanin truncation, residues 1-17 (MAPRGFSCLLLLTSEID; also: fused to GFP; UniProt Q8IVG9 1-17, looked up, fragment) | + (ability to suppress apoptosis induced by Bax over-expression by >50%) |
| + |  |  | 3-17: GFP-fusion of Humanin truncation, residues 3-17 (PRGFSCLLLLTSEID; also: fused to GFP; UniProt Q8IVG9 3-17, looked up, fragment) | + (ability to suppress apoptosis induced by Bax over-expression by >50%) |
| + |  |  | 3-18: GFP-fusion of Humanin truncation, residues 3-18 (PRGFSCLLLLTSEIDL; also: fused to GFP; UniProt Q8IVG9 3-18, looked up, fragment) | + (ability to suppress apoptosis induced by Bax over-expression by >50%) |
| + |  |  | 3-19: GFP-fusion of Humanin truncation, residues 3-19 (PRGFSCLLLLTSEIDLP; also: fused to GFP; UniProt Q8IVG9 3-19, looked up, fragment) | + (ability to suppress apoptosis induced by Bax over-expression by >50%) |
| + |  |  | 3-24: GFP-fusion of Humanin truncation, residues 3-24 (PRGFSCLLLLTSEIDLPVKRRA; also: fused to GFP; UniProt Q8IVG9 3-24, looked up, fragment) | + (ability to suppress apoptosis induced by Bax over-expression by >50%) |
| + |  |  | 4-24: GFP-fusion of Humanin truncation, residues 4-24 (RGFSCLLLLTSEIDLPVKRRA; also: fused to GFP; UniProt Q8IVG9 4-24, looked up, fragment) | + (ability to suppress apoptosis induced by Bax over-expression by >50%) |
| + |  |  | 7-24: GFP-fusion of Humanin truncation, residues 7-24 (SCLLLLTSEIDLPVKRRA; also: fused to GFP; UniProt Q8IVG9 7-24, looked up, fragment) | + (ability to suppress apoptosis induced by Bax over-expression by >50%) |
| − |  |  | 10-24: GFP-fusion of Humanin truncation, residues 10-24 (LLLTSEIDLPVKRRA; also: fused to GFP; UniProt Q8IVG9 10-24, looked up, fragment) | − (failed to protect against Bax-induced apoptosis) |
| − |  |  | 13-24: GFP-fusion of Humanin truncation, residues 13-24 (TSEIDLPVKRRA; also: fused to GFP; UniProt Q8IVG9 13-24, looked up, fragment) | − (failed to protect against Bax-induced apoptosis) |
| − |  |  | GFP Only: Green Fluorescent Protein control without Humanin [reference compound] | − (failed to protect against Bax-induced apoptosis) |
|  | comparable amounts | suppressed to comparable extents | GFP-HN(M): mitochondria-encoded Humanin (SEQ ID NO:3, 21 amino acids, Met at position 16) as GFP fusion |  |
